Data as given in patent US20240417453A1 (ANWITA BIOSCIENCES, published 2024).

What was measured:
human IL-2Rβ (CD122) = target: T1, human IL-2Rβ (CD122) (human, UniProt P14784 27-239); test: BLI (OCTET RED96), receptor loaded on biosensor, global fitting
T1 construct: also called hIL-2Rβ
T1 sequence: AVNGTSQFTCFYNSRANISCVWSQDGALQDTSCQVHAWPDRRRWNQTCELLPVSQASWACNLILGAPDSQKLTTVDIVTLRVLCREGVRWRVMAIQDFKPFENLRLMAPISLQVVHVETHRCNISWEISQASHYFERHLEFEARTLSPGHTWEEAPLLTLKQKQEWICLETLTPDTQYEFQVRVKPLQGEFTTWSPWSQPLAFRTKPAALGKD
Method: (§1) OCTET® RED96 was used to characterize the interactions of anti-HSA-hIL-2 fusion proteins with human IL-2Rα (CD25) and IL-2Rβ (CD122). Briefly, hIL-2Rα and hIL-2Rβ were each loaded onto a biosensor. Each biosensor was then dipped into a solution containing an anti-HSA-hIL-2 fusion protein at 10 to 2,000 nM. Primary experimental data was analyzed with global fitting to determine a binding affinity (Kd).

human IL-2Rα (CD25) [1] = target: T2, human IL-2Rα (CD25) (human, UniProt P01589 22-240, limits assumed); test: BLI (OCTET RED96), hIL-2Rα loaded on the biosensor, fusion protein in solution at 33.3, 100 and 300 nM
T2 construct: also called hIL-2Rα
T2 sequence: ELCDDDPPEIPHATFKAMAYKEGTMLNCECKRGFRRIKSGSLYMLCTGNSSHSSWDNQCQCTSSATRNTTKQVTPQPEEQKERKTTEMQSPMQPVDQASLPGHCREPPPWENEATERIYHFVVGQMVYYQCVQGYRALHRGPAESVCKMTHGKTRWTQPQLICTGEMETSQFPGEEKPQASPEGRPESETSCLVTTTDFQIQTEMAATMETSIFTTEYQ
Method: as §1

human IL-2Rα (CD25) [2] = target: T2, human IL-2Rα (CD25); test: BLI (OCTET RED96), receptor loaded on biosensor, fusion protein in solution
Method: as §1

B1: Anti-HSA-IL-2 A2 (IL-2-IL15 chimera 12) (other)
chain: QVQLVESGGGVVQPGGSLRLSCAASGFAFRGFGMSWVRQAPGKGLEWVSSINNGGSDTYYADSVKGRFTISRDNSKNTLYLQMNSLRAEDTAVYYCAIGGPGASPSGQGTQVTVSSGGGGSGGGGSGGGGSAPTSSSTKKTQLQLKHLLLDLQMILNGIQSMHIDATTFKFYMPKKATELKHLQCLEEELKPLEEVLNLAQSKNFHLRPRDLISNINVIVLELKGSETTFMCEYADETATIVEFLNRWITFSQSIISTLT
notes: E15K, C125S); Produced in CHO cells; also called anti-HSA-hIL-2 fusion protein A2
- Kd (human IL-2Rβ (CD122)): 139 nM
- binding result (human IL-2Rα (CD25) [1]): no binding (tested: 300 nM)

B2: Anti-HSA-IL-2 A1 (IL-2-IL15 chimera 7) (other)
chain: QVQLVESGGGVVQPGGSLRLSCAASGFAFRGFGMSWVRQAPGKGLEWVSSINNGGSDTYYADSVKGRFTISRDNSKNTLYLQMNSLRAEDTAVYYCAIGGPGASPSGQGTQVTVSSGGGGSGGGGSGGGGSAPTSSSTKKTQLQLKHLLLDLQMILNGIQSMEIDATTFKFYMPKKATELKHLQCLEEELKPLEEVLNLAQSKNFHLRPRDLISNINVIVLELKGSETTFMCEYADETATIVEFLNRWITFSQSIISTLT
notes: E15K, C125S); Produced in CHO cells; also called anti-HSA-hIL-2 fusion protein A1
- Kd (human IL-2Rβ (CD122)): 55 nM
- binding result (human IL-2Rα (CD25) [2]): no binding (tested: 10 to 2,000 nM)

B3: Anti-HSA-IL-2 A15 (IL-2-IL15 chimera 12) (other)
chain: QVQLVESGGGVVQPGGSLRLSCAASGFAFRGFGMSWVRQAPGKGLEWVSSINNGGSDTYYADSVKGRFTISRDNSKNTLYLQMNSLRAEDTAVYYCAIGGPGASPSGQGTQVTVSSASTKGGGGGSGGGGSAPTSSSTKKTQLQLKHLLLDLQMILNGIQSMHIDATTFKFYMPKKATELKHLQCLEEELKPLEEVLNLAQSKNFHLRPRDLISNINVIVLELKGSETTFMCEYADETATIVEFLNRWITFSQSIISTLT
notes: Produced in CHO cells; also called anti-HSA-hIL-2 fusion protein A15
- Kd (human IL-2Rβ (CD122)): 94 nM
- binding result (human IL-2Rα (CD25) [2]): no binding (tested: 10 to 2,000 nM)

B4: Anti-HSA-IL-2 A4 (IL-2-IL15 chimera 12) (other)
chain: EVQLVESGGGLVQPGGSLRLSCAASGSTWSINTLAWYRQAPGKQRDLVARISSGGSTYYADSVKGRFTISRDNSKNTLYLQMNSLRAEDTAVYYCYAQSTWYPPSWGQGTLVTVSSGGGGSGGGGSGGGGSAPTSSSTKKTQLQLKHLLLDLQMILNGIQSMHIDATTFKFYMPKKATELKHLQCLEEELKPLEEVLNLAQSKNFHLRPRDLISNINVIVLELKGSETTFMCEYADETATIVEFLNRWITFSQSIISTLT
notes: Produced in CHO cells; also called anti-HSA-hIL-2 fusion protein A4
- binding result (human IL-2Rα (CD25) [1]): no binding (tested: 300 nM)

B5: Anti-HSA-IL-2 A3 (IL-2-IL15 chimera 7) (other)
chain: EVQLVESGGGLVQPGGSLRLSCAASGSTWSINTLAWYRQAPGKQRDLVARISSGGSTYYADSVKGRFTISRDNSKNTLYLQMNSLRAEDTAVYYCYAQSTWYPPSWGQGTLVTVSSGGGGSGGGGSGGGGSAPTSSSTKKTQLQLKHLLLDLQMILNGIQSMEIDATTFKFYMPKKATELKHLQCLEEELKPLEEVLNLAQSKNFHLRPRDLISNINVIVLELKGSETTFMCEYADETATIVEFLNRWITFSQSIISTLT
notes: Produced in CHO cells; also called anti-HSA-hIL-2 fusion protein A3
- binding result (human IL-2Rα (CD25) [2]): no binding (tested: 10 to 2,000 nM)

B6: Anti-HSA-IL-2 A17 (IL-2-IL15 chimera 12) (other)
chain: EVQLVESGGGLVQPGGSLRLSCAASGSTWSINTLAWYRQAPGKQRDLVARISSGGSTYYADSVKGRFTISRDNSKNTLYLQMNSLRAEDTAVYYCYAQSTWYPPSWGQGTLVTVSSASTKGGGGGSGGGGSAPTSSSTKKTQLQLKHLLLDLQMILNGIQSMHIDATTFKFYMPKKATELKHLQCLEEELKPLEEVLNLAQSKNFHLRPRDLISNINVIVLELKGSETTFMCEYADETATIVEFLNRWITFSQSIISTLT
notes: Produced in CHO cells; also called anti-HSA-hIL-2 fusion protein A17
- binding result (human IL-2Rα (CD25) [2]): no binding (tested: 10 to 2,000 nM)
